For one molecule, KM for the methyl acceptor peptide substrate, isoaspartyl methyltransferase activity (methanol vapor diffusion assay, 30°C, 0.2 M Bis-Tris pH 6.0, 14.5 μM SAM, 0.2–60 μM peptide) results are on record in article PMC7859441.

Assay [1] concerns the target zebrafish Pcmt (protein L-isoaspartyl methyltransferase) (zebrafish) (UniProt Q92047).
The target of assay [2] is zebrafish Pcmtl (protein L-isoaspartyl methyltransferase paralog) (zebrafish).

Starred links: 1 amine or outer side, 2 acyl side, 3 side chain; linkers in the order of their positions; H or OH if unused. Non-standard residues stand in square brackets, D forms with d. No end group written: not given here. βAsp = O=C(O)[C@H](CC(=O)[*:2])N[*:1]

Sequence of UniProt Q92047 (Q92047 whole entry): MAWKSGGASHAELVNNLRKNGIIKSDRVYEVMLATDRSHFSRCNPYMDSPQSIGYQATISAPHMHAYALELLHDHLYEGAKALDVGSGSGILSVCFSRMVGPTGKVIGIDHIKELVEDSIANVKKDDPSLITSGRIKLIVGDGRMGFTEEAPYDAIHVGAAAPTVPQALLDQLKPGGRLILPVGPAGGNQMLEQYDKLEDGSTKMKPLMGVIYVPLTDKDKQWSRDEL

B1: isoaspartyl substrate peptide KASAisoDLAKY (peptide)
peptide: KASA[βAsp]LAKY
Regarding B1, the KM for the methyl acceptor peptide substrate, isoaspartyl methyltransferase activity (methanol vapor diffusion assay, 30°C, 0.2 M Bis-Tris pH 6.0, 14.5 μM SAM, 0.2–60 μM peptide) was 4.2 μM in assay [1] and 3.6 μM in assay [2].
